The values that follow come from patent US20230220073A1 (UCL BUSINESS, published 2023).

The target of one assay is T1, I(48)Q mutation (human, UniProt Q01973).
T1 construct: The text speaks of the Ig-like domain; the axis on sheet D00010 reads ROR1 Ig-like+Fz+Kg; also called ROR1 with I(48)Q in the Ig-like domain, on transduced SUP-T1 cells
Description: flow cytometry, I(48)Q-transduced cells (eGFP), DyLight647. The method, then: FIG. 5A-FIG. 5H: Epitope mapping of ROR1 clone A MAb. FIG. 5A-FIG. 5B: Reactivity of clone A with ROR1-derived overlapping peptides was analyzed by ELISA. FIG. 5C-FIG. 5H: Amino acid substitution within the epitope binding region was performed in ROR1-transduced cell lines. Also, the previously described clones R12, 4a5 and D10 were also included for comparison. Red circles indicate essential amino acids for antibody binding. One out of three experiments is shown. Experiments were done in triplicates. Error bars represent SD.
(§1) Retroviral vectors were used for transducing SUP-T1 cells and transduction was tested by GFP expression using flow cytometry.

Assay [1] has as its target T2, ROR1 Ig-like domain with NISSE at residues 47 to 51 replaced by FQDDL, on transduced SUP-T1 cells (human, UniProt Q01973 30-147, limits assumed).
T2 construct: domain: Ig-like; also called five amino acid substitution
Description: flow cytometry on SUP-T1 cells transduced with mutated ROR1 Ig-like domain.

The target in the next assay is T3, Fz+Kg (human, UniProt Q01973).
T3 construct: also called ROR1 Frizzled+Kringle domains, on transduced SUP-T1 cells
The assay is described as follows: flow cytometry, transduced SUP-T1 cells, anti-human Fc-Dylight647. As to the method: (§2) FIG. 1A-FIG. 1C: Identification of ROR1 binding domain: FIG. 1A: SUP-T1 cells were transduced with retroviral vectors containing either the full extracellular portion of ROR1 or only one or two extracellular domains. Non-transduced SUP-T1 (SUP-T1 NT) cells served as negative control. FIG. 1B: All 12 chimeric antibodies and FIG. 1C all 10 positive clones in scFv format were incubated with SUP-T1 NT and the new stable cell lines at 4° C. for 30 min. Cells were washed and stained with a secondary antibody (anti-human Fc-Dylight647), which was used as negative control. eROR1=extracellular ROR1, Ig-like=Immunoglobulin-like domain, Fz=Frizzled domain, Kg=Kringle domain.

The target in another assay is T4, Kringle (Kg) (human, UniProt Q01973).
T4 construct: also called ROR1 Kringle domain alone, on transduced SUP-T1 cells
The assay is described as above. The method, then: as §2

The target in assay [2] is T5, ROR1 Frizzled domain alone, on transduced SUP-T1 cells (human, UniProt Q01973 165-299).
T5 construct: domain: Fz; also called Fz; ROR1-Fz domain
The description is as above. The method, then:
as §2

The target in assay [3] is T6, Histidine-tagged ROR1 protein (extracellular region) (UniProt Q01973 30-406).
T6 construct: extracellular domain; also called extracellular portion of ROR1 bearing a Histidine tag; not shown: Histidine tag
The assay is described as follows: SPR, Biacore X100; antibody captured by anti-human IgG1 on CM5 chip, His-tagged ROR1 extracellular portion injected at 1.5-100 nM. As to the method:
FIG. 3: KD determination by surface plasmon resonance. Sensorgrams obtained using a Biacore X100 instrument are shown. Briefly, ROR1 antibodies were immobilized using a CM5 chip and seven different concentrations of the Histidine-tagged ROR1 protein (extracellular region) were injected. Concentrations ranged from […].
We undertook surface plasmon resonance evaluation using a Biacore X100 instrument. ROR1 chimeric antibodies were immobilised using an anti-human IgG1 antibody capture kit and a CM5 sensor chip. Seven different concentrations, ranging from 1.5-100 nM, of the extracellular portion of ROR1 bearing a Histidine tag were then injected.

Assay [4] concerns the target T7, ROR1, full extracellular region, on transduced SUP-T1 cells (UniProt Q01973 30-406).
T7 construct: extracellular domain; also called eROR1; extracellular ROR1
The assay is described as follows: flow cytometry, transduced SUP-T1 cells, anti-human Fc-Dylight647. As to the method: as §2

Assay [5] has as its target T8, ROR1 Ig-like domain alone, on transduced SUP-T1 cells (human, UniProt Q01973 30-147, limits assumed).
T8 construct: domain: Ig-like; also called immunoglobulin domain
Described as above. The method, then:
as §2

Assay [6] concerns the target T9, ROR1 Ig-like+Frizzled (Fz) domains, on transduced SUP-T1 cells (UniProt Q01973 30-299, limits assumed).
T9 construct: domain: Ig-like+Frizzled (Fz); also called Ig-Fz protein
The description is as above. As to the method: as §2

Assay [7] concerns the target T10, ROR1 Fz domain with Q(261)H and I(254)V, on transduced SUP-T1 cells (human, UniProt Q01973 165-299).
T10 construct: domain: Fz
Description: flow cytometry on SUP-T1 cells transduced with mutated ROR1 Fz domain.

The target in the next assay is Q(261)H mutation (human, UniProt Q01973). The assay is described as follows: flow cytometry, Q(261)H-transduced SUP-T1 cells (eGFP), DyLight647. As to the method: FIG. 6A-FIG. 6D: Epitope mapping of ROR1 clone F MAb. FIG. 6A-FIG. 6B: Reactivity of clone F with ROR1-derived overlapping peptides was analyzed by ELISA. Since no linear epitope was identified, FIG. 6C-FIG. 6D: amino acid substitution of non-conserved regions within the Fz domain was performed in ROR1-Fz transduced cell lines. Circles indicate essential amino acids for antibody binding. One out of three experiments is shown. Experiments were done in triplicates. Error bars represent SD.
as §1

The target in assay [8] is T7, ROR1, full extracellular region, on …. The assay is described as follows: flow cytometry, ROR1-transduced cells, single staining; Q1 = ahFc+ only; amFc+ahFc alone Q1 0.060. The source says: FIG. 7A-FIG. 7C: Competition assay by flow cytometry. Clone A (SA1) in murine IgG2a, k (mSA1) along with other ROR1 MAbs in human IgG1, k-including previously published 4a5, D10 and R12 clones—were used for staining ROR1-transduced cells. MAb staining was done as FIG. 7A-FIG. 7B: single agents or FIG. 7C: in combination with clone A (mSA1). Anti-human IgG (450) and anti-mouse IgG (DyLight649) were used as secondary antibodies. Combined staining using clones F and mSA1 acted as negative control for overlapping epitopes.
In FIG. 7C, three different columns are presented. Dot plots on the first column correspond to ROR1 binding assessed when SUP-T1 ROR1 cells were stained with clone A (SA1) (mIgG) in the first instance. After a washing step, cells were stained with a competitor antibody (hIgG), followed by another washing step. Both antibodies were then detected by a third staining step using the appropriate secondary antibodies. In the second column, a similar approach was taken when staining these cells, except that this time it was the antibody in hIgG1, k format the one used for the first staining step, followed by clone A (SA1) staining. On the third column, both antibodies were used at the same time.

In the next assay the target is T11, CLL2 ROR1high (human, UniProt Q01973).
T11 construct: on the cell surface; also called ROR1 on primary CLL cells with high ROR1
Description: flow cytometry, cells stained at 4 C, ahFc-DyLight647. The method, then:
FIG. 9A-FIG. 9C: Internalisation of ROR1 MAbs on SKW 6.4 GFP and CLL cells by flow cytometry. Cells were stained at 4° C. and either left on ice or incubated at 37° C. for 15 min, 1 h and 2 h. Cells were then analysed using an anti-human IgG as secondary antibody. FIG. 9A-FIG. 9B: Histograms and FIG. 9C: Trends over time showing the MFI reduction over time are presented. The % of MFI reduction was calculated as described in the Materials and Methods chapter. Phenylarsine oxide (PAO), an endocytosis inhibitor, acted as negative control (PAO-120).
To distinguish between dissociation and internalisation, SKW 6.4 cells were incubated on ice in the presence of our selected antibodies for 30 min. Cells were then washed with ice-cold PBS and either left on ice or incubated at 37° C. for 15 min, 1 h or 2 h. For the 2 h time point, a duplicate sample was incubated with PAO (10 μM). Immediately after incubation, all samples were washed with ice-cold PBS and stained with an anti-human Fc-Dylight 647 for 30 min. Cells were analysed by flow cytometry and MFI reduction was calculated.
Samples were processed as mentioned above and analysed by flow cytometry. […] This was even clearer on CLL cells, where virtually no internalisation of clone V was detected.

For another assay, the target named is T12, SKW 6.4 GFP (human, UniProt Q01973).
T12 construct: on the cell surface; also called ROR1 endogenously expressed on SKW 6.4 cells
The assay is described as follows: flow cytometry, SKW 6.4 GFP cells stained at 4 C, anti-human Fc-Dylight 647. As to the method: FIG. 8A-FIG. 8C: Internalisation of ROR1 antibodies on SKW 6.4 GFP cells by flow cytometry. SKW 6.4 GFP cells were stained at 4° C. and either kept on ice (blue line) or incubated at 37° C. (yellow line) for 1 h. […] Clones A, F and Mu (purple circle) were selected for further investigation. Clones R12 and 4a5 (in black) served as negative and positive control, respectively. Anti-human Fc-Dylight 647 was used as secondary antibody and as staining control (red line). MFI=Median Fluorescence Intensity.
After 30 min, cells were washed with ice-cold PBS, and either left on ice or incubated at 37° C. for 1 h. Subsequent staining with an anti-human Fc-Dylight 647 was used to detect any primary antibody that had remained on the cell surface. Previously reported clones R12 and 4a5 were also included in this assay as negative and positive controls, respectively (FIG. 8).

T4 sequence (Q01973 312-391 limits assumed): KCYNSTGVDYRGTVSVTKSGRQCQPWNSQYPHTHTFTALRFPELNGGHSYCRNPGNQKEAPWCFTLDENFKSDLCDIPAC
T8 sequence (Q01973 30-147 limits assumed): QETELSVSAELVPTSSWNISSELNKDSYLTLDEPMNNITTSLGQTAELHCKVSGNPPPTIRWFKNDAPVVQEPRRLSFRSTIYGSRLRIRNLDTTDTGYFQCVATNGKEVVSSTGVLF
T7 sequence (Q01973 30-406): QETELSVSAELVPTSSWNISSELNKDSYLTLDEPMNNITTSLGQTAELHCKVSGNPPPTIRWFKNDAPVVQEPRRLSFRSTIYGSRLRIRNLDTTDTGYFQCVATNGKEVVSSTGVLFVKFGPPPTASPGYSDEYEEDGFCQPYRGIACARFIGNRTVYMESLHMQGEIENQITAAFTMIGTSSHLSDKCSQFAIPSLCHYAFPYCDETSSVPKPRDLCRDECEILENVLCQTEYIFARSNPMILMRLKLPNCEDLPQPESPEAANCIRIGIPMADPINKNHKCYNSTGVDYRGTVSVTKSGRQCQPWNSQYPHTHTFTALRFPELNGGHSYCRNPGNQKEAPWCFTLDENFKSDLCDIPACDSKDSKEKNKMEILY
T6 sequence (Q01973 30-406): as above
T3 sequence (Q01973 165-391 limits assumed): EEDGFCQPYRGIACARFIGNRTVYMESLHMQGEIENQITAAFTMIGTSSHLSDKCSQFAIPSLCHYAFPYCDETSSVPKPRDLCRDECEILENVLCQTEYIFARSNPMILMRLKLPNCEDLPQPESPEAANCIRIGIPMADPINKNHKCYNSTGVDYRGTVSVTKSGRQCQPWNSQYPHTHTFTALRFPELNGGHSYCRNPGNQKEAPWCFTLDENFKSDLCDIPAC
T5 sequence (Q01973 165-299): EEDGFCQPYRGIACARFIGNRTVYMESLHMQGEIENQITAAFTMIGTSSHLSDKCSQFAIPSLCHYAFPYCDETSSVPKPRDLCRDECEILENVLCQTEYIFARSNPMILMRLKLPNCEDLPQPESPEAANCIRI
T9 sequence (Q01973 30-299 limits assumed): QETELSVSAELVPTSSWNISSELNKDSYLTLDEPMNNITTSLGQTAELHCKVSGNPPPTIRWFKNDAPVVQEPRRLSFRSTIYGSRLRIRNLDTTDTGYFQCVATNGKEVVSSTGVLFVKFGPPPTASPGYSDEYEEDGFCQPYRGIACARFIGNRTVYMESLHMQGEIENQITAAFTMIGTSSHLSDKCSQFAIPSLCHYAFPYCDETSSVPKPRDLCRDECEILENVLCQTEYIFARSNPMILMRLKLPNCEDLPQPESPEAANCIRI
T2 sequence (Q01973 other isoform, or with tags, fused parts or gaps limits assumed): as the sequence (Q01973 30-147 limits assumed) above, with N18F, I19Q, S20D, S21D, E22L counted along it
T10 sequence (Q01973 165-299 I254V/Q261H): as the sequence (Q01973 165-299) above, with I90V, Q97H counted along it
T1 sequence (Q01973 other isoform, or with tags, fused parts or gaps limits assumed): as the sequence (Q01973 30-406) above, with I19Q counted along it
T12 sequence (Q01973 30-937 limits assumed): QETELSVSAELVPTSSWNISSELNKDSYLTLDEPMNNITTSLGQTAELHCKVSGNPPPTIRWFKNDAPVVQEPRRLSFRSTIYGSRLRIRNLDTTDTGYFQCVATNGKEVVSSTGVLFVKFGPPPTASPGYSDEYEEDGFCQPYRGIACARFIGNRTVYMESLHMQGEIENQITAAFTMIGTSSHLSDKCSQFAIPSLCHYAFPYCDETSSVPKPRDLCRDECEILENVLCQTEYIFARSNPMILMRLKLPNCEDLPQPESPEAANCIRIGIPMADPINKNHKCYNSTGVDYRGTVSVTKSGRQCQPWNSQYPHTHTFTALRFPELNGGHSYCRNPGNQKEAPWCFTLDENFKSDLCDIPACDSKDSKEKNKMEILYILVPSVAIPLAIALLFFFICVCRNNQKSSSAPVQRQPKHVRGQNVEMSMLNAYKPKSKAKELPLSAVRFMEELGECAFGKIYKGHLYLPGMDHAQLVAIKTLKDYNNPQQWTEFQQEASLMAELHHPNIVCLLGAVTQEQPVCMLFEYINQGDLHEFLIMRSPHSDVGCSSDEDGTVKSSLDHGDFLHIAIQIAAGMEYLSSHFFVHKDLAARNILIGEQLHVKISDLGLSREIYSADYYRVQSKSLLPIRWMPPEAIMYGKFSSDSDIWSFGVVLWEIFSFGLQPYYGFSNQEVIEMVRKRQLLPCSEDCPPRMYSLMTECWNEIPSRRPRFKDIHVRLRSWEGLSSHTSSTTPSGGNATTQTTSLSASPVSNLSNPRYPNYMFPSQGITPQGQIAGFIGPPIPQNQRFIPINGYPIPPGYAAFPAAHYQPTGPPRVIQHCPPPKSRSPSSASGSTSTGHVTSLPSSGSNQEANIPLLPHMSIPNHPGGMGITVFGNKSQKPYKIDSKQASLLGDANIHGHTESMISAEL
T11 sequence (Q01973 30-937 limits assumed): as above
Sequence of Q(261)H mutation (Q01973 165-299 Q261H limits assumed): as the sequence (Q01973 165-299) above, with Q97H counted along it

B1: Clone A chimeric ROR1 antibody (antibody, V domains shown)
VH: QVQLQQSGTELVKPASSVRISCKASGYTLTTNYMHWIRQQPGNGLEWIGWIYPGNGNTKFNHKFDGRTTLTADKSSSIVYMQLSSLTSEDSAVYFCARSDFDYWGQGVMVTVSS
VL: DIQMTQSPSSMSASLGDRVTFTCQASQDIGNNLIWFQQKPGKSPRPLMYFATSLANGVPSRFSGSRSGSDYSLTISSLESEDLADYHCLQYREYPLTFGSGTKLDLK
notes: also called SA1
In the case of B1, the binding result (with I(48)Q mutation; in assay [1]; with Fz+Kg; in the assay with Kringle (Kg); in assay [2]) was “no binding” each time. This molecule showed a dissociation constant Kd in assay [3] of 1.81 nM. In assay [3], this molecule yielded an off-rate constant (koff) of 0.00104 s⁻¹. Also, in assay [3], the on-rate constant (kon) turned out to be 577000 M⁻¹ s⁻¹.

B2: Clone Mu chimeric ROR1 antibody (antibody, V domains shown)
VH: QVQLQQSGAELVKPGSSVRISCKASGYTITSYDMHWIKQQPGNGLEGIGWIHPGNGKIKYNQKFNGKATLTVDKSSSTAYMQLSSLTSEDSAVYFCARGTTRVFPWFAYWGQGTLVTVSS
VL: QFTLTQPKSVSGSLRSTITIPCERSSGDIGDNYVSWYQQHLGRPPINVIYADDQRPSEVSDRFSGSIDSSSNSASLTITNLQMDDEADYFCQSFDSNFDIPVFGGGTKLTVL
Regarding B2, the binding result is “no binding” with Fz+Kg; “no binding” with Kringle (Kg); “binds” in [4]; “binds” in [5]; “no binding” in assay [2]; “binds” in assay [6].

B3: Clone F chimeric ROR1 antibody (antibody, V domains shown)
VH: EVQLVESGGGLVQPGRSLKLSCAASGFIFSEHNMAWVRQAPKKGLEWVATISDDGRNTYYRDSMRGRFTISRENARSTLYLQLDSLRSEDTATYYCASHRYNLFDSWGQGVMVTVSS
VL: DIQMTQSPSFLSASVGDRVTINCKASQNIDRYLNWYQQKLGEAPKRLLYNTNKLQTGIPSRFSGSGSATDFTLTISSLQPEDFATYFCLQYNSLPLTFGSGTKLEIK
B3: the binding result (in [7]; in the assay with Kringle (Kg); in assay [5]; in the assay with Q(261)H mutation) was “no binding” each time. Moreover, in assay [8], the Q1 quadrant figure came to 85. The same molecule showed a Kd in [3] of 5.46 nM. In addition, in assay [3], the koff turned out to be 0.000836 s⁻¹. Also, the on-rate constant (kon) in [3] was found to be 153000 M⁻¹ s⁻¹.

B4: Clone V chimeric ROR1 antibody (antibody, V domains shown)
VH: EVQLVESGGGLVQPGRSLKLSCAASGFSFSNYGMHWIRQAPTKGLEWVASISPTGGNTYYRDSVKGRFTISRDNTKSTLYLQMDSLRSEDTATYYCATDDLYYSGPFAYWGQGTLVTVSS
VL: DIKMTQSPSFLSASVGDRVTINCKASQNITRFLNWYQQELGEAPTLLIYNTNNLQTGIPSRFSGSGSGTDFTLTISSLQPEDVATYFCLQHGSRPRTFGGGTKLELK
B4: the binding result was “binds” in the assay with CLL2 ROR1high; “no binding” with Fz+Kg; “no binding” with Kringle (Kg); “binds” in [4]; “no binding” in assay [5]; “no binding” in assay [2]. In addition, the binding result (in assay [6]; with SKW 6.4 GFP) was “binds” each time.
